The results in this text go back to patent US20120058906A1 (published 2012).

Experiment [1] has as its target T1, rHuman P-Cadherin/Fc Chimera, CF (R&D Systems Cat#861-PC) (human, UniProt P22223 108-654).
T1 construct: Bought protein; also called CDH3; Fc part of the bought chimera not given
Kind of experiment: ECL (MSD multi-spot), antigen spotted on plate; Fab 10 nM; blank 550.

The target of experiment [2] is T2, rHuman HGF R/c-MET/Fc Chimera, CF (R&D Systems Cat#358-MT/CF) (human, UniProt P08581 25-932).
T2 construct: Bought protein; also called HGF R/Fc; hepatocyte growth factor receptor; Fc part of the bought chimera not given
The description is as above.

For experiment [3], the target named is T3, rHuman Erythropoietin R/Fc Chimera, CF (R&D Systems Cat#963-ER) (human, UniProt P19235 25-250).
T3 construct: Bought protein; also called EPO R/Fc; Epo R; Fc part of the bought chimera not given
T3 sequence: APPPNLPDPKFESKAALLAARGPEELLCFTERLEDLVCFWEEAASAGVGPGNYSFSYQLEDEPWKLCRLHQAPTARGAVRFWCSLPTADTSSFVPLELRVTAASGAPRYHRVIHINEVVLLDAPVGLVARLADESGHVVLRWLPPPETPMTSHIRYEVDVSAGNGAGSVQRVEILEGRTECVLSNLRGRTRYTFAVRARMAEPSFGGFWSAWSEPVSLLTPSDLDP
The description is as above.

Experiment [4] deals with T4, Recombinant Human DLL4 (R&D Systems Cat#1506-D4/CF) (human, UniProt Q9NR61 27-524).
T4 construct: Bought protein; also called rHuman DLL4; delta-like protein 4
The description is as above.

The target of experiment [5] is T5, rHuman ErbB2/Fc Chimera, CF (R&D Systems Cat#1129-ER) (human, UniProt P04626 23-652).
T5 construct: Bought protein; also called HER2/neu; human epidermal growth factor 2 receptor; Fc part of the bought chimera not given
The description is as above.

Experiment [6] concerns the target T6, rHuman Notch-1/Fc Chimera, CF (R&D Systems Cat#3647-TK) (human, UniProt P46531 19-526).
T6 construct: Bought protein; Fc part of the bought chimera not given
Described as above.

Experiment [7] addresses T7, rHuman CD44/Fc Chimera, CF (R&D Systems Cat#3660-CD) (human, UniProt P16070 21-220).
T7 construct: Bought protein; Fc part of the bought chimera not given
The description is as above.

Experiment [8] has as its target T8, rHuman EGF R/Fc Chimera, CF (R&D Systems Cat#344-ER) (human, UniProt P00533 25-645).
T8 construct: Bought protein; also called epidermal growth factor receptor; Fc part of the bought chimera not given
Described as above.

For experiment [9], the target named is T9, rHuman IGF-1 sR (IGF-1 sR), CF (R&D Systems Cat#391-GR) (human, UniProt P08069 31-932).
T9 construct: Bought soluble receptor; also called insulin-like growth factor-1 soluble receptor; IGF-R1
Described as above.

The target of experiment [10] is T1, rHuman P-Cadherin/Fc Chimera, CF (R&D …). Kind of experiment: ECL (MSD multi-spot), antigen spotted on plate; Fab 1000 nM; blank 760.
Experiment [11] deals with T2, rHuman HGF R/c-MET/Fc Chimera, CF (R&D …). The description is as above.
The target of experiment [12] is T3, rHuman Erythropoietin R/Fc Chimera, CF …. Described as above.
Experiment [13] has as its target T4, Recombinant Human DLL4 (R&D Systems …). The description is as above.
Experiment [14] concerns the target T5, rHuman ErbB2/Fc Chimera, CF (R&D …). Described as above.
The target of experiment [15] is T6, rHuman Notch-1/Fc Chimera, CF (R&D …). Described as above.
In experiment [16] the target is T7, rHuman CD44/Fc Chimera, CF (R&D Systems …). The experiment is described as above.
In experiment [17] the target is T8, rHuman EGF R/Fc Chimera, CF (R&D …). Described as above.
The target of experiment [18] is T9, rHuman IGF-1 sR (IGF-1 sR), CF (R&D …). Described as above.
Experiment [19] deals with T10, rHuman EGF R/Fc Chimera, CF (R&D Systems Cat#344-ER) (human, UniProt P00533 25-645).
T10 construct: Bought Fc chimera; also called epidermal growth factor receptor; Fc part of the bought chimera not given
Description: ECL (MSD Multi-Spot) binding, antigen spotted on plate; Fab 1000 nM.

Experiment [20] addresses T11, rHuman Erythropoietin R/Fc Chimera, CF (R&D Systems Cat#963-ER) (human, UniProt P19235 25-250).
T11 construct: Bought Fc chimera; also called EPO R/Fc; erythropoietin receptor; Fc part of the bought chimera not given
T11 sequence: T3 sequence
The experiment is described as above.

Experiment [21] deals with T12, Recombinant Human DLL4 (R&D Systems Cat#1506-D4/CF) (human, UniProt Q9NR61 27-524).
T12 construct: Bought recombinant protein; also called delta-like protein 4
The experiment is described as above.

Experiment [22] addresses T13, rHuman ErbB2/Fc Chimera, CF (R&D Systems Cat#1129-ER) (human, UniProt P04626 23-652).
T13 construct: Bought Fc chimera; also called human epidermal growth factor 2 receptor; HER2/neu; Fc part of the bought chimera not given
Described as above.

Experiment [23] deals with T14, rHuman HGF R/c-MET/Fc Chimera, CF (R&D Systems Cat#358-MT/CF) (human, UniProt P08581 25-932).
T14 construct: Bought Fc chimera; also called HGF R/Fc; hepatocyte growth factor receptor; Fc part of the bought chimera not given
Described as above.

Experiment [24] concerns the target T15, rHuman P-Cadherin/Fc Chimera, CF (R&D Systems Cat#861-PC) (human, UniProt P22223 108-654).
T15 construct: Bought Fc chimera; Fc part of the bought chimera not given
The description is as above.

For experiment [25], the target named is T16, rHuman Notch-1/Fc Chimera, CF (R&D Systems Cat#3647-TK) (human, UniProt P46531 19-526).
T16 construct: Bought Fc chimera; Fc part of the bought chimera not given
The description is as above.

The target of experiment [26] is T17, rHuman IGF-1 sR, CF (R&D Systems Cat#391-GR) (human, UniProt P08069 31-932).
T17 construct: Bought soluble receptor; also called insulin-like growth factor-1 soluble receptor; IGF-R1
The experiment is described as above.

Experiment [27] concerns the target T18, rHuman CD44/Fc Chimera, CF (R&D Systems Cat#3660-CD) (human, UniProt P16070 21-220).
T18 construct: Bought Fc chimera; Fc part of the bought chimera not given
The experiment is described as above.

The target in experiment [28] is T10, rHuman EGF R/Fc Chimera, CF (R&D …). Description: ECL (MSD Multi-Spot) binding, antigen spotted on plate; Fab 10 nM.
The target in experiment [29] is T11, rHuman Erythropoietin R/Fc Chimera, CF …. Described as above.
In experiment [30] the target is T12, Recombinant Human DLL4 (R&D Systems …). Described as above.
The target of experiment [31] is T13, rHuman ErbB2/Fc Chimera, CF (R&D …). Described as above.
Experiment [32] addresses T14, rHuman HGF R/c-MET/Fc Chimera, CF (R&D …). Described as above.
Experiment [33] deals with T15, rHuman P-Cadherin/Fc Chimera, CF (R&D …). Described as above.
Experiment [34] deals with T16, rHuman Notch-1/Fc Chimera, CF (R&D …). The experiment is described as above.
Experiment [35] addresses T17, rHuman IGF-1 sR, CF (R&D Systems …). The experiment is described as above.
The target of experiment [36] is T18, rHuman CD44/Fc Chimera, CF (R&D Systems …). The experiment is described as above.

Changes are numbered by the printed parent chain. Names and notes keep the numbering of the source.
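Further: blank spot per well as comparator with Hit at signal to blank ratio of 4 or more.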

B1: Fab VH1-46_IGHD6-6*01_IGHJ1*01_S103P & L6_IGKJ1*01 (Fab, V domains shown)
VH: QVQLVQSGAEVKKPGASVKVSCKASGYTFTSYYMHWVRQAPGQGLEWMGIINPSGGSTSYAQKFQGRVTMTRDTSTSTVYMELSSLRSEDTAVYYCAREEYSPSSAEYFQHWGQGTLVTVSS
VL: not shown
notes: Expressed in E. coli as a Fab; CH1 with Flag and His tags comes from Plasmid A and the kappa CL from Plasmid C; also called IGHV1-46*01; IGHJ1*01 S103P with IGKV3-11*01
As for B1, the ECL signal in experiment [1] was 846; in experiment [2], 859; in experiment [3] it was 802; in experiment [4], 55100; in experiment [5], 847; in experiment [6] it was 792. The ECL signal in experiment [7] turned out to be 746; in experiment [8], 773; in experiment [9] it was 814; in experiment [10], 1380; in [11], 1360; in experiment [12], 1510. The ECL signal came out at 29800 in [13]; 1280 in [14]; 1210 in experiment [15]; 1220 in [16]; 1910 in experiment [17]; 1340 in experiment [18].

B2: Fab VH1-46_IGHD6-6*01_IGHJ1*01_S102A & L6_IGKJ1*01 (Fab, V domains shown)
VH: B1 VH with S102A, P103S
VL: not shown
notes: Fab made in E. coli; The heavy chain also carries the CH1 with Flag and His tags of Plasmid A, and the light chain the kappa constant region of Plasmid C
Consider B2, for which the ECL signal was found to be 1600 in experiment [19]; 1320 in experiment [20]; 22200 in experiment [21]; 946 in experiment [22]; 1660 in [23]; 1500 in experiment [24]. Further, the ECL signal in experiment [25] stood at 1250; in [26], 1170; in [27], 1090; in experiment [28] it was 677; in [29] it was 761; in experiment [30], 38700. Also, the ECL signal in experiment [31] is 670; in [32], 698; in experiment [33], 691; in experiment [34], 647; in experiment [35], 657; in experiment [36] it was 681.
